From US20230071765A1, “COMPOSITIONS HAVING THIOREDOXIN ACTIVITY AND RELATED METHODS” (ORPRO THERAPEUTICS, INC., priority 2020, published 2023)

Experiments:
[1] = thiol pKa (acid-dissociation constant); type: physicochemical; conditions: verified experimentally, data not shown
Text: The human CF airway surface liquid is approximately 0.8 pH units more acidic than that of unaffected individuals due to the loss of bicarbonate-mediated buffering of proton secretion (Garland A L, Walton W G, Coakley R D, et al., 2013, Molecular basis for pH-dependent mucosal dehydration in cystic fibrosis airways. PNAS 110:15973-8; Shah V S, Meyerholz D K, Tang X X, et al., 2016, Airway acidification initiates host defense abnormalities in cystic fibrosis mice, Science 351:503-7). This has consequences for the clinical use of reducing agents to treat condensed, abnormal mucus. […] Cys thiol pKa values range from pH 8.5 (cysteamine) to pH 9.5 (NAC). In marked contrast to these classical thiols, the structurally-stabilized pKa of the Trx active site Cys32 is two to three logs lower (pH 6.1-6.3), allowing high activity even at acidic CF airway pH (FIG. 2).

[2] = tested on: mucins of 4% HBE mucus; assay: mucin molecular weight by GPC-MALLS; type: biochemical, human; conditions: all three concentrations (0.01, 0.1, 1.0 mM), 1 hr at 37° C.; untreated 180 MDa
Text: Mucus Preparation: Aseptic mucus was harvested from over 100 individual HBE cultures from 20 different CF donors and prepared to four weight-percent (4%) solids, a concentration that typifies chronic obstructive pulmonary disease (COPD) and mild CF (Hill, D. B. et al., 2014, A biophysical basis for mucus solids concentration as a candidate biomarker for airways disease, PloS one 9, e87681; Anderson, W. H. et al., 2015, The relationship of mucus concentration (hydration) to mucus osmotic pressure and transport in chronic bronchitis., Am J Resp Crit Care Med 192: 182-90). […] Creep recovery experiments were performed in which a known stress (between 0.05 and ˜100 Pa) was applied to treated or control mucus for 10 seconds, and the rheological recovery of the fluid was recorded for an additional 50 seconds. […] From the measured parameters the viscosity and elasticity of the fluid were determined as a function of applied stress. […] Mucin molecular weight determination: Molecular weight reduction following test article treatment was determined using a combination of gel-permeation chromatography with multi-angle laser light scattering on a Wyatt Heleos MALLS system. […] Mucin MW was determined by fitting a Berry model to light scattering from 11 different angles using Wyatt Astra software. […]

B1: ORP100S: thioredoxin with monothiol active site, Cys35 and non-active Cys 62, 69 and 73 substituted with serine (SEQ ID NO:29) (protein)
chain: MVKQIESKTAFQEALDAAGDKLVVVDFSATWCGPSKMIKPFFHSLSEKYSNVIFLEVDVDDSQDVASESEVKSMPTFQFFKKGQKVGEFSGANKEKLEATINELV
modifications: synthetic peptide motif
[1]
  pKa compared to native Trx: same pKa as native Trx
[2]
  molecular weight of mucins: ca. 150 MDa
